Series [1] deals with T1, Kdh holoenzyme, FAD site in KdhM (Paenarthrobacter nicotinovorans, UniProt O87681).
T1 construct: gene kdhA; same holoenzyme as P1; KdhM 287 residues, 32 kDa, holds FAD; with 6-hydroxypseudooxynicotine dehydrogenase complex subunit gamma; 6-hydroxypseudooxynicotine dehydrogenase complex subunit beta
T1 sequence (O87681 1-296): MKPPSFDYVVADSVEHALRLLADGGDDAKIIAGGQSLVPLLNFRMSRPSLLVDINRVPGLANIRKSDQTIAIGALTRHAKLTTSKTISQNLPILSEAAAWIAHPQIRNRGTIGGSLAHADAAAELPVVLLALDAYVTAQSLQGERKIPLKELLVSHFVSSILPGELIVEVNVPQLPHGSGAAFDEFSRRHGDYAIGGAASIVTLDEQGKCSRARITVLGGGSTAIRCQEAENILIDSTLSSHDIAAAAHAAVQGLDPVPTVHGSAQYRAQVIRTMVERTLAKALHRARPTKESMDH
T1 sequence (Q933N0 1-794 partner): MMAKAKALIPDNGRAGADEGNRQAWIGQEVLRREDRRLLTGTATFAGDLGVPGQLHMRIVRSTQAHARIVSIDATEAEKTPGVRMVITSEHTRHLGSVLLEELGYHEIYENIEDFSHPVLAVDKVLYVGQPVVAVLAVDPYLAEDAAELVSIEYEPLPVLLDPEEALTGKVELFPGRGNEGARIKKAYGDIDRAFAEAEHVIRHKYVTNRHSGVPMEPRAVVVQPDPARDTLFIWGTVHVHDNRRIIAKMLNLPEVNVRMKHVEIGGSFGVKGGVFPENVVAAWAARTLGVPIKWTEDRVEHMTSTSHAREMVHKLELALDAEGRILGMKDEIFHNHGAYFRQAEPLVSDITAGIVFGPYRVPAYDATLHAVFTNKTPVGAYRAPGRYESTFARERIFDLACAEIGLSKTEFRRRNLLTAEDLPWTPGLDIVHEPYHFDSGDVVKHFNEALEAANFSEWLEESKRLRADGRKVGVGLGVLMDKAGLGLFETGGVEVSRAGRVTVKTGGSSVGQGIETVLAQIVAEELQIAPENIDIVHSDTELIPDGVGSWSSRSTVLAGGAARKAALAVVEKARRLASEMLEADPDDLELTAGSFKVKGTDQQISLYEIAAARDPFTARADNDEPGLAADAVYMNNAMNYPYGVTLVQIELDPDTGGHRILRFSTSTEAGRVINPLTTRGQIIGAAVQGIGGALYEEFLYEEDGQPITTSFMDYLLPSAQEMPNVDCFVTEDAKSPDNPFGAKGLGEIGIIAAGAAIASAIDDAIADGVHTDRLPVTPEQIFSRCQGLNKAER
T1 sequence (O87682 2-160 partner): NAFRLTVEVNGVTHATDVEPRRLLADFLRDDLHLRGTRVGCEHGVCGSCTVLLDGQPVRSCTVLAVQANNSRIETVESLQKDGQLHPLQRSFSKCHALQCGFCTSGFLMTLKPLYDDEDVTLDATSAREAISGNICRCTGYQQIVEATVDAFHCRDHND
Put plainly: X-ray crystal structure, […] Å. The class given is binding. The note with it: co-purified cofactor.

In series [2] the target is T2, Kdh holoenzyme (KdhL, KdhM, KdhS); 6-hydroxypseudooxynicotine 2-oxidoreductase; ketone dehydrogenase (Paenarthrobacter nicotinovorans, UniProt Q933N0).
T2 construct: gene kdhC; kdhLMS co-expressed from pART2-kdhLMS in A. nicotinovorans pAO1; Ni-NTA (tag not described) and Superdex 200; KdhL 87 kDa, KdhM 287 residues, KdhS 160 residues; heterotrimer, dimer of heterotrimers in crystal; with 6-hydroxypseudooxynicotine dehydrogenase complex subunit alpha; 6-hydroxypseudooxynicotine dehydrogenase complex subunit beta
T2 sequence (Q933N0 1-794): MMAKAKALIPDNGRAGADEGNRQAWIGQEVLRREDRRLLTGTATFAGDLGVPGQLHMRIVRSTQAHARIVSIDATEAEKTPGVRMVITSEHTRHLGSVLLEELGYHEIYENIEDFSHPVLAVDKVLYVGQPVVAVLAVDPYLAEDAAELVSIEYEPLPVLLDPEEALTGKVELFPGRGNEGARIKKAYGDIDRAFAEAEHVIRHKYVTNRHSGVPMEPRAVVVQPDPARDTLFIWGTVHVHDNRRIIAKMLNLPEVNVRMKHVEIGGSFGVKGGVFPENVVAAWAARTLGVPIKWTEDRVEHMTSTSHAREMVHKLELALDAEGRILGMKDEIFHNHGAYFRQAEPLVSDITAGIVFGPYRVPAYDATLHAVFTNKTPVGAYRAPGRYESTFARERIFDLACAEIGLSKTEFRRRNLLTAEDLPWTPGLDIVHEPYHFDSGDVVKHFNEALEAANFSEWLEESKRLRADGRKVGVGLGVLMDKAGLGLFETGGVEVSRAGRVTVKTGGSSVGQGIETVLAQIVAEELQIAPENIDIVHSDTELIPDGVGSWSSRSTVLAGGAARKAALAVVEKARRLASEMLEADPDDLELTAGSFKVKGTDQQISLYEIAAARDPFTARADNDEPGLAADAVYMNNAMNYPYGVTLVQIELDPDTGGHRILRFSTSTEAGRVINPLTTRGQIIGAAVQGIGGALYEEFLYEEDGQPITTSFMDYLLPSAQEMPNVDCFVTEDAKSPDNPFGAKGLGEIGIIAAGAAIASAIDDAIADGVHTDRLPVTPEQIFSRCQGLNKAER
T2 sequence (O87681 1-296 partner): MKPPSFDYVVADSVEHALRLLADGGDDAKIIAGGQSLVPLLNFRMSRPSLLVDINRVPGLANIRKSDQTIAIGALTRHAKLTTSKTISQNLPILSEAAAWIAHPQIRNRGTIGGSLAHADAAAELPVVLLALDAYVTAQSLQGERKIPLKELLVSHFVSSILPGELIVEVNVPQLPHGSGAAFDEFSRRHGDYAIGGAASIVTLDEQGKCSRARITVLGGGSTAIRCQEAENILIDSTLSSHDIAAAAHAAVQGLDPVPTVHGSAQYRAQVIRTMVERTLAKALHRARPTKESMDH
T2 sequence (O87682 2-160 partner): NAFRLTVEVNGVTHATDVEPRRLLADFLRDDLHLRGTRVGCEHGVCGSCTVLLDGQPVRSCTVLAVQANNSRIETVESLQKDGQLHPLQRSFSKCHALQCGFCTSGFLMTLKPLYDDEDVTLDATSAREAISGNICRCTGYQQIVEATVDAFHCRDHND
Put plainly: X-ray crystal structure, […] Å. The class given is binding. The note with it: co-purified cofactor, MCD site in KdhL.

Substrate in the series “purified protein”: CNCCCC(=O)c1ccc(O)nc1
Put plainly: purified protein. The class given is biochemical, Paenarthrobacter nicotinovorans. As to conditions: 500 μM PMS, 50 μM DCIP, aerobic, 30 °C, pH 8.0, Tris-HCl per Table 2 (Table 3 lists the same value under PBS pH 8.0).

Data on three molecules can be found in paper PMC8305194, “Structural, Mechanistic, and Functional Insights into an Arthrobacter nicotinovorans Molybdenum Hydroxylase Involved in Nicotine Degradation” (Molecules, 2021).

In general, Km refers to the substrate concentration at which the rate is half of its maximum. A word on the kcat: it is the maximal rate divided by the concentration of active sites. One may read the kcat/Km as the second-order rate constant that governs catalysis at low substrate concentration.

For `Cc1cc2nc3c(=O)[nH]c(=O)nc-3n(C[C@H](O)[C@H](O)[C@H](O)COP(=O)(O)OP(=O)(O)OC[C@H]3O[C@@H](n4cnc5c(N)ncnc54)[C@H](O)[C@@H]3O)c2cc1C` [FAD], the “X-ray crystal structure, 3.4 Å” value in series [1] is reported as “the KdhM-bound FAD cofactor is relatively less restricted from the exterior”. For `Nc1ccn([C@@H]2O[C@H](COP(=O)(O)OP(=O)(O)OC[C@H]3O[C@H]4Nc5nc(N)[nH]c(=O)c5N[C@H]4C(S)=C3S)[C@@H](O)[C@H]2O)c(=O)n1` [MCD], the “X-ray crystal structure, 3.4 Å” value in series [2] is on record as “the MCD cofactor is at the center of their intersection”.

B1: Kdh holoenzyme (KdhL, KdhM, KdhS); 6-hydroxypseudooxynicotine 2-oxidoreductase; ketone dehydrogenase (Paenarthrobacter nicotinovorans) (protein)
chain: MMAKAKALIPDNGRAGADEGNRQAWIGQEVLRREDRRLLTGTATFAGDLGVPGQLHMRIVRSTQAHARIVSIDATEAEKTPGVRMVITSEHTRHLGSVLLEELGYHEIYENIEDFSHPVLAVDKVLYVGQPVVAVLAVDPYLAEDAAELVSIEYEPLPVLLDPEEALTGKVELFPGRGNEGARIKKAYGDIDRAFAEAEHVIRHKYVTNRHSGVPMEPRAVVVQPDPARDTLFIWGTVHVHDNRRIIAKMLNLPEVNVRMKHVEIGGSFGVKGGVFPENVVAAWAARTLGVPIKWTEDRVEHMTSTSHAREMVHKLELALDAEGRILGMKDEIFHNHGAYFRQAEPLVSDITAGIVFGPYRVPAYDATLHAVFTNKTPVGAYRAPGRYESTFARERIFDLACAEIGLSKTEFRRRNLLTAEDLPWTPGLDIVHEPYHFDSGDVVKHFNEALEAANFSEWLEESKRLRADGRKVGVGLGVLMDKAGLGLFETGGVEVSRAGRVTVKTGGSSVGQGIETVLAQIVAEELQIAPENIDIVHSDTELIPDGVGSWSSRSTVLAGGAARKAALAVVEKARRLASEMLEADPDDLELTAGSFKVKGTDQQISLYEIAAARDPFTARADNDEPGLAADAVYMNNAMNYPYGVTLVQIELDPDTGGHRILRFSTSTEAGRVINPLTTRGQIIGAAVQGIGGALYEEFLYEEDGQPITTSFMDYLLPSAQEMPNVDCFVTEDAKSPDNPFGAKGLGEIGIIAAGAAIASAIDDAIADGVHTDRLPVTPEQIFSRCQGLNKAER
notes: kdhLMS co-expressed from pART2-kdhLMS in A. nicotinovorans pAO1; Ni-NTA (tag not described) and Superdex 200; KdhL 87 kDa, KdhM 287 residues, KdhS 160 residues; heterotrimer, dimer of heterotrimers in crystal; with 6-hydroxypseudooxynicotine dehydrogenase complex subunit alpha; 6-hydroxypseudooxynicotine dehydrogenase complex subunit beta
With B1, in the series “purified protein”, the Km turned out to be 12.5 ± 0.9 µM, the kcat amounted to 9.03 ± 0.12 s⁻¹ and the kcat/Km is 720000 ± 130000 M⁻¹ s⁻¹.
